Measured values reported in article doi:10.1101/407197.
Where two headings read alike, the source gives them in different places.

Tests used:
MIWI [1] = target: T1, MIWI (mouse, UniProt Q9JMB7 1-862); experiment: EMSA
MIWI [2] = target: T1, MIWI; experiment: EMSA; remark: listed apart in the source

T1 sequence (Q9JMB7 whole entry): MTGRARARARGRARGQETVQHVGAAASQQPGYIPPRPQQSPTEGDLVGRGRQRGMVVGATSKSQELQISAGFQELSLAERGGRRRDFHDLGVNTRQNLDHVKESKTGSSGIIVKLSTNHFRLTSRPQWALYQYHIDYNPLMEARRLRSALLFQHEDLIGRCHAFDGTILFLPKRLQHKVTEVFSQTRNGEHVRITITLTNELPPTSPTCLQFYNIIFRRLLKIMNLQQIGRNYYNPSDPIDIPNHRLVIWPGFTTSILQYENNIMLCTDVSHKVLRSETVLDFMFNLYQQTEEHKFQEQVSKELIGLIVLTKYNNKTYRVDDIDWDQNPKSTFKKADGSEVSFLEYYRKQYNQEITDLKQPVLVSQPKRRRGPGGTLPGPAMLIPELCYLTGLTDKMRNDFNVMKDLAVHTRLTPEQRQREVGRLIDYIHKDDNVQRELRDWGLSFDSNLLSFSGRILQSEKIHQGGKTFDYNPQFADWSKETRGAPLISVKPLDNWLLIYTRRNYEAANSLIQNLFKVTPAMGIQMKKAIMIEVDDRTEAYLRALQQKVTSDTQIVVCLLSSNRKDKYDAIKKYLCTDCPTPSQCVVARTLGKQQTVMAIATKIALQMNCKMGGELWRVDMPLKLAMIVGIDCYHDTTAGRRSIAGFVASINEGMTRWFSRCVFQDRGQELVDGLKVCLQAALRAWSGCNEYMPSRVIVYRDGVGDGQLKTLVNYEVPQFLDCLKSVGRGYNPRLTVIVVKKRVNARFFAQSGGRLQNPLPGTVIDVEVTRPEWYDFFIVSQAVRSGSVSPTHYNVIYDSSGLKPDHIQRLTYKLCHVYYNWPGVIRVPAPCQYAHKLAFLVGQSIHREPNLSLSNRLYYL

UGACAUGAACACAGGUGCUCAGAUAGCUUU (ssRNA) [piR1]: binds (MIWI [1]).

CAGUUAAAGAAAUGCAUGAGAA (ssRNA) [Sly RNA oligonucleotide (putative piRNA)]: binds (MIWI [2]).

CCUCAUGAAGAAGAGGAGGAGGA (ssRNA) [Ssty RNA oligonucleotide (putative piRNA)]: binds (MIWI [2]).
